Paper PMC3538076
Values joined by “and” are separate entries in the source; they are usually repeats but may differ in a detail not shown here. Equal values may be shown once. Read-outs that look alike come from different tables or passages of the source.

Experiments:
[1] = target: H3–H4 complex with H3 labeled with Cy3 at Gln-125 (H3 C110A) (Xenopus laevis) (UniProt P84233); assay: fluorescence polarisation
[2] = target: RbAp48–H3–H4 complex, labeled with Cy3 at Gln-125 on H3 (human | Xenopus laevis) (UniProt Q09028); assay: fluorescence polarisation
[3] = target: H3–H4 complex with H3 labeled with Cy3 at Gln-125 (H3 C110A) (Xenopus laevis) (UniProt P84233); assay: fluorescence polarisation; remark: listed apart in the source
[4] = target: gH3–gH4 heterodimer (globular forms of histones H3 and H4) (Xenopus laevis) (UniProt P84233); assay: SEC
[5] = target: H3–H4 complex with H3 labeled with Cy3 at Leu-65 (H3 C110A) (Xenopus laevis) (UniProt P84233); assay: fluorescence polarisation

Row | Kd [1] | Kd [2] | Kd [3] | stoichiometry N (ASF1^1-159 : gH3–gH4) [4] | Kd [5] | Substance
1 | 0.27 nM | 7.1 nM and 3 nM and 6.8 nM | 0.3 nM | 1 | – | human ASF1^1-159 (anti-silencing function protein 1, residues 1-159) (from UniProt Q9Y294 1-159) (domain or fragment)
2 | – | – | – | – | 0.61 nM | human retinoblastoma-associated protein RbAp48 (from UniProt Q09028 1-425) (natural protein)
